T1: BCMA on BCMA-positive NCI-H929, ARP-1 and U266B1 cells (human, UniProt Q02223 1-184)
T1 construct: they are human cell lines; also called B-cell maturation antigen; TNFRSF17
T1 sequence: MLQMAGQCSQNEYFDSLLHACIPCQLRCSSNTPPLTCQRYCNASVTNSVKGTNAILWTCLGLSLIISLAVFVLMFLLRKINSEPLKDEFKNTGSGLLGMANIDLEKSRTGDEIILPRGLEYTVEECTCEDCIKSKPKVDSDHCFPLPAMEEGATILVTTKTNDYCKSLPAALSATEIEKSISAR


Key:
[1] = target: cynomolgus BCMA on 293T-cynoBCMA cells (cynomolgus, UniProt Q02223 1-184 (human entry)); assay: FACS, 293T-cynoBCMA cells
Method: (§1) Variants for which sufficient protein was purified in secondary screening were tested in a fluorescence-activated cell sorting (FACS) cell-binding assay. […] 6-12 point dilutions of anti-BCMA variants starting from concentrations of about 100-200 nM antibody were dispensed into each well using a BioMekFX (Beckman Coulter). Cells were then incubated on ice for 1 hr, washed with FACS buffer and incubated for 1 hr on ice with […] FACS buffer containing […] Alexa647-conjugated Goat Anti-Human IgG dispensed using BioMekFX (Beckman Coulter). Cells were then washed 2× with FACS buffer and fixed for 10 minutes in […] PBS with 2% PFA prior to fluorescence detection. Samples were acquired using a Beckton Dickinson LSRII FACS. Geometric Mean Fluorescence Intensity of BCMA antibody binding was analyzed using FlowJo® software (Trec Star, Inc.).

[2] = target: T1, BCMA on BCMA-positive NCI-H929, ARP-1 …; assay: FACS, NCI-H929 cells
Method: as §1

[3] = target: T1, BCMA on BCMA-positive NCI-H929, ARP-1 …; assay: cell-based or functional assay

Sequence of cynomolgus BCMA on 293T-cynoBCMA cells (Q02223 other isoform, or with tags, fused parts or gaps): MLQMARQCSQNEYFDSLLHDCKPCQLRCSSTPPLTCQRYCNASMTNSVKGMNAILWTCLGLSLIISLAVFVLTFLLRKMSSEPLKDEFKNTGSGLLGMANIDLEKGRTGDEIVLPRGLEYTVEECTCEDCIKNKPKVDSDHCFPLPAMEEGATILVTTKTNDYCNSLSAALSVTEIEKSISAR

Binder | Bmax (MFI) [1] | Bmax (MFI) [2] | ARP-1, SC225-conjugated 2° antibody cell killing, EC50 [3] | ARP-1, SC225-conjugated 2° antibody cell killing, Span [3] | U266B1, SC225-conjugated 2° antibody cell killing, EC50 [3] | U266B1, SC225-conjugated 2° antibody cell killing, Span [3] | Kd [1] | Kd [2]
SRP2213-A06 (antibody, IgG1, V domains shown, IgG1 with trastuzumab light chain, His/FLAG-tagged, cell-free expressed; also called Antibody 23) VH: EVQLVESGGGLVQPGGSLRLSCAASGFNISSYAIHWVRQAPGKGLEWVGVISPYGGYTEYADSVKGRFTISADTSKNTAYLQMNSLRAEDTAVYYCARDFYDRYSTYVLDYWGQGTLVTVSS VL: not shown | 3620 MFI | 2510 MFI | – | – | – | – | – | –
SRP2265-C03 (antibody, IgG1, V domains shown, IgG1 with trastuzumab light chain, His/FLAG-tagged, cell-free expressed; also called Antibody 11) VH: EVQLVESGGGLVQPGGSLRLSCAAPGFNISVPGIHWVRQAPGKGLEWVGFINPAGGYTDYADSVKGRFTISADTSKNTAYLQMNSLRAEDTAVYYCARDYVPQYWTYVLDYWGQGTLVTVSS VL: not shown | 24100 MFI | 11500 MFI | 2.2 nM | 70% | 1.1 nM | 61% | 4.9 nM | 4.4 nM
SRP2265-B06 (antibody, IgG1, V domains shown, IgG1 with trastuzumab light chain, His/FLAG-tagged, cell-free expressed; also called Antibody 5) VH: EVQLVESGGGLVQPGGSLRLSCAASGFNIRVSGIHWVRQAPGKGLEWVGFINPAGGYTDYADSVKGRFTISADTSKNTAYLQMNSLRAEDTAVYYCARDYVQAYWTYVLDYWGQGTLVTVSS VL: not shown | 26600 MFI | 11900 MFI | 1.6 nM | 67% | 0.6 nM | 59% | 3.4 nM | 6.2 nM
SRP2265-D11 (antibody, IgG1, V domains shown, IgG1 with trastuzumab light chain, His/FLAG-tagged, cell-free expressed; also called Antibody 9) VH: EVQLVESGGGLVQPGGSLRLSCAASGFNISGPGIHWVRQAPGKGLEWVGFINPAAGYTDYADSVKGRFTISADTSKNTAYLQMNSLRAEDTAVYYCARDYIYQYWTYVLDYWGQGTLVTVSS VL: not shown | 21900 MFI | 9620 MFI | 1.9 nM | 51% | 1 nM | 54% | 2.5 nM | 4.4 nM
SRP2265-C02 (antibody, IgG1, V domains shown, IgG1 with trastuzumab light chain, His/FLAG-tagged, cell-free expressed; also called Antibody 12) VH: EVQLVESGGGLVQPGGSLRLSCAASGFNIGVSGIHWVRQAPGKGLEWVGFINPAGGYTDYAGSVKGRFTISADTSKNTAYLQMNSLRAEDTAVYYCARDYIYSYWTYVLDYWGQGTLVTVSS VL: not shown | 17400 MFI | 11200 MFI | 1.5 nM | 55% | 0.7 nM | 51% | 2.5 nM | 4.3 nM
SRP2137-A05 (antibody, IgG1, V domains shown, IgG1 with trastuzumab light chain, His/FLAG-tagged, cell-free expressed; also called Antibody 14) VH: EVQLVESGGGLVQPGGSLRLSCAASGFNINNSYIHWVRQAPGKGLEWVGWIYPYSGYTNYADSVKGRFTISADTSKNTAYLQMNSLRAEDTAVYYCARDYGPWYGTGVLDYWGQGTLVTVSS VL: not shown | 1910 MFI | 2690 MFI | – | – | – | – | – | –
SRP2265-F02 (antibody, IgG1, V domains shown, IgG1 with trastuzumab light chain, His/FLAG-tagged, cell-free expressed; also called Antibody 4) VH: EVQLVESGGGLVQPGGSLRLSCAASGFNISAPGIHWVRQAPGKGLEWVGFINPAGGYTDYADSVKGRFTISADTSKNTAYLQMNSLRAEDTAVYYCARDYIRQYWTYVLDYWGQGTLVTVSS VL: not shown | 21800 MFI | 12200 MFI | 1.6 nM | 62% | 1 nM | 62% | 5 nM | 4.5 nM
SRP2265-A09 (antibody, IgG1, V domains shown, IgG1 with trastuzumab light chain, His/FLAG-tagged, cell-free expressed; also called Antibody 6) VH: EVQLVESGGGLVQPGGSLRLSCAASGFNIIGPGIHWVRQAPGKGLEWVGFINPAGGYTDYADSVKGRFTISADTSKNTAYLQMNSLRAEDTAVYYCARDYVYNYWTYVLDYWGQGTLVTVSS VL: not shown | 23800 MFI | 11700 MFI | 1.9 nM | 55% | 0.9 nM | 58% | 6.2 nM | 5.2 nM
SRP2265-F03 (antibody, IgG1, V domains shown, IgG1 with trastuzumab light chain, His/FLAG-tagged, cell-free expressed; also called Antibody 7) VH: EVQLVESGGGLVQPGGSLRLSCAASGFNIRGPGIHWVRQAPGKGLEWVGFISPAAGYTDYADSVKGRFTISADTSKNTAYLQMNSLRAEDTAVYYCARDFVQSYWTYVLDYWGQGTLVTVSS VL: not shown | – | 12500 MFI | 2.3 nM | 57% | 0.8 nM | 56% | – | 5.3 nM
SRP2265-F05 (antibody, IgG1, V domains shown, IgG1 with trastuzumab light chain, His/FLAG-tagged, cell-free expressed; also called Antibody 3) VH: EVQLVESGGGLVQPGGSLRLSCAASGFNIIAPGIHWVRQAPGKGLEWVGFINPAGGYTDYADSVKGRFTISADTSKNTAYLQMNSLRAEDTAVYYCARDYVNAYWTYVLDYWGQGTLVTVSS VL: not shown | 18500 MFI | 12700 MFI | 1.8 nM | 52% | 1.2 nM | 61% | 3 nM | 10.3 nM
SRP2265-E02 (antibody, IgG1, V domains shown, IgG1 with trastuzumab light chain, His/FLAG-tagged, cell-free expressed; also called Antibody 8) VH: EVQLVESGGGLVQPGGSLRLSCAASGFNIYVSGIHWVRQAPGKGLEWVGFINPAGGYTDYADSVKGRFTISADTSKNTAYLQTNSLRAEDTAVYYCARDYVYQYWTYVLDYWGQGTLVTVSS VL: not shown | 26700 MFI | 11600 MFI | 1.5 nM | 55% | 0.8 nM | 53% | 5.1 nM | –
SRP2265-D05 (antibody, IgG1, V domains shown, IgG1 with trastuzumab light chain, His/FLAG-tagged, cell-free expressed; also called Antibody 10) VH: EVQLVESGGGLVQPGGSLRLSCAASGFNISGPGIHWVRQAPGKGLEWVGFINPAAGYTDYADSVKGRFAISADTSKNTAYLQMNSLRAEDTAVYYCARDFVYAYWTYVLDYWGQGTLVTVSS VL: not shown | 21300 MFI | 10900 MFI | 1 nM | 50% | 0.8 nM | 53% | 3.8 nM | 4 nM
SRP2265-F06 (antibody, IgG1, V domains shown, IgG1 with trastuzumab light chain, His/FLAG-tagged, cell-free expressed; also called Antibody 2) VH: EVQLVESGGGLVQPGGSLRLSCAASGFNISYPGIHWVRQAPGKGLEWVGFINPAGGYTDYADSVKGRFTISADTSKNTAYLQMNSLRAEDTAVYYCARDYILQYWTYVLDYWGQGTLVTVSS VL: not shown | 25800 MFI | 11400 MFI | 1.2 nM | 62% | 0.9 nM | 59% | – | –
SRP2265-A06 (antibody, IgG1, V domains shown, IgG1 with trastuzumab light chain, His/FLAG-tagged, cell-free expressed; also called Antibody 13) VH: EVQLVESGGGLVQPGGSLRLSCAASGFNIYRSGIHWVRQAPGKGLEWVGFINPAGGYTDYADSVKGRFTISADTSKNTAYLQMNSLRAEDTAVYYCARDYVPQYWTYVLDYWGQGTLVTVSS VL: not shown | 22100 MFI | 11100 MFI | 2.9 nM | 68% | 1.3 nM | 59% | – | –

From patent US20240368295A1 (SUTRO BIOPHARMA, published 2024)
